The target of test [1] is T1, full-length human Tau (htau40, 441 residues, 2N4R) (human, UniProt P10636-8 1-441).
The next test has as its target human full-length Hsp90β (human, UniProt P08238 1-724). Briefly: ITC.
In test [2] the target is T1, full-length human Tau (htau40, 441 …). The source holds these as a separate data set.
Test [3] has the same target. Briefly: Hsp90 in presence of FKBP51 (1:1).

Where two headings read alike, the source gives them in different places.

Chain of human full-length Hsp90β (P08238 whole entry): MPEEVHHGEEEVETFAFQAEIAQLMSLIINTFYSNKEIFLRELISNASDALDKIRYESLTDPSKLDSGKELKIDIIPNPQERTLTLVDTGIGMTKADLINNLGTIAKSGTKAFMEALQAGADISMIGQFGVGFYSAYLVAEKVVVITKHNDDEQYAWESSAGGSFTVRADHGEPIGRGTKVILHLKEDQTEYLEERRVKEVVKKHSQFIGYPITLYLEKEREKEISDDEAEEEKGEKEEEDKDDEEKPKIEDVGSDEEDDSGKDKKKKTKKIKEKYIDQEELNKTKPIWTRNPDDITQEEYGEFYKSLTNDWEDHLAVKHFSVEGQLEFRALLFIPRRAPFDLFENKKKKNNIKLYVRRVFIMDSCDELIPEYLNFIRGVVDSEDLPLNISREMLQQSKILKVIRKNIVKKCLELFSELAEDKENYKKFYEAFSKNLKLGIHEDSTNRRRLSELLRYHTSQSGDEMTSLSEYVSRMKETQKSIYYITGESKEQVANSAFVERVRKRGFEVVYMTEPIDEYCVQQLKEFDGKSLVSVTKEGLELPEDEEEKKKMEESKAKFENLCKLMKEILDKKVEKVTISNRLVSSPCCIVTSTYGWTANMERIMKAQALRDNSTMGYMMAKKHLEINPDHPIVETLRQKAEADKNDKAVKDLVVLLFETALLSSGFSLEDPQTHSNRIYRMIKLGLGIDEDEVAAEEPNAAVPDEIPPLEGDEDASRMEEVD

B1: IANBD-labeled Hsp90 M362C (natural protein)
chain: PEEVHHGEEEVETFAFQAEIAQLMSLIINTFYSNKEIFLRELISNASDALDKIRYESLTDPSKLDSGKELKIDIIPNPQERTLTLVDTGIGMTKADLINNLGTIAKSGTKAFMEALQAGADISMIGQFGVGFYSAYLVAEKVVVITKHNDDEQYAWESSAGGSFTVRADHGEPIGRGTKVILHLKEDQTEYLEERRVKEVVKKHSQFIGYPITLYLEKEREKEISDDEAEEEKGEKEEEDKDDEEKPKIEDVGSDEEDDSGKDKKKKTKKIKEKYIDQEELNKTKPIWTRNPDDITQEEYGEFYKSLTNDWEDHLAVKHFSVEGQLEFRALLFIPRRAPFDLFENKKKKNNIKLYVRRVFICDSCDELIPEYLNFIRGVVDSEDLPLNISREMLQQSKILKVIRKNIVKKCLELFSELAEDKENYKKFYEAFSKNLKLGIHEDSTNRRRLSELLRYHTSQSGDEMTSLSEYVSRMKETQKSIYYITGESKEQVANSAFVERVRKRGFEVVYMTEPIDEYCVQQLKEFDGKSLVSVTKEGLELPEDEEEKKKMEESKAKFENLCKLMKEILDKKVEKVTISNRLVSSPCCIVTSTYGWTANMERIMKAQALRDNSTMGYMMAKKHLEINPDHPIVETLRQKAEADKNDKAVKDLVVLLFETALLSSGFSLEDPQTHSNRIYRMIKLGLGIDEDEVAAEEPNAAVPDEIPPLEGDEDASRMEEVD
modifications: IANBD amide fluorescent dye on Cys362 (M362C)
Broadly, the Kd is the concentration at which binding is half-saturated. In test [1], B1 yielded a dissociation constant Kd of 4.2 µM.

B2: full-length human FKBP51 (natural protein)
chain: MTTDEGAKNNEESPTATVAEQGEDITSKKDRGVLKIVKRVGNGEETPMIGDKVYVHYKGKLSNGKKFDSSHDRNEPFVFSLGKGQVIKAWDIGVATMKKGEICHLLCKPEYAYGSAGSLPKIPSNATLFFEIELLDFKGEDLFEDGGIIRRTKRKGEGYSNPNEGATVEIHLEGRCGGRMFDCRDVAFTVGEGEDHDIPIGIDKALEKMQREEQCILYLGPRYGFGEAGKPKFGIEPNAELIYEVTLKSFEKAKESWEMDTKEKLEQAAIVKEKGTVYFKGGKYMQAVIQYGKIVSWLEMEYGLSEKESKASESFLLAAFLNLAMCYLKLREYTKAVECCDKALGLDSANEKGLYRRGEAQLLMNEFESAKGDFEKVLEVNPQNKAARLQISMCQKKAKEHNERDRRIYANMFKKFAEQDAKEEANKAMGKKTSEGVTNEKGTDSQAMEEEKPEGHV
On to B2, for which the figures for the Kd (in the test with human full-length Hsp90β; in test [2]) were 0.249 µM and 45.1 µM, respectively.

B3: IANBD-labeled Hsp90 M362C/FKBP51 (1:1) complex (complex)
chain 1: not shown
chain 2: B2 chain
modifications: IANBD amide fluorescent dye on Cys362 (M362C)
With B3, in test [3], the Kd stood at 8.2 µM.
